Experimental data taken from paper PMC7933130 (Nature, 2021).

Target: the molecule itself
Assay: SEC-MALS

B1: human Na+-dependent citrate transporter NaCT (SLC13A5), wildtype (natural protein)
chain: not shown
modifications: one glycan unit connected to Asn562 (N-glycosylation site)
  stoichiometry N: 2
